Target: CD3ε homodimer protein (human, UniProt P07766 23-126, limits assumed)
Assay: SPR, immobilized CD3ε homodimer;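 further: biacore T200 surface plasmon resonance at 25 °C, antibody variants flowed as analytes over amine-coupled CD3ε homodimer on a CM4 chip, variant binding amount divided by that of GLS3000 antibody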

CD3ε homodimer protein, sequence (P07766 23-126 limits assumed): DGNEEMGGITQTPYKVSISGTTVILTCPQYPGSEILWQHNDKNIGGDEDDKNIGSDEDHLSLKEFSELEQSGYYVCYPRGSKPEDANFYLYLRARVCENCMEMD

B1: GLS3000 S25E (antibody, name in Kabat numbering, V domains shown)
VH: QVQLVESGGGVVQPGRSLRLSCAASGFTFSNAWMHWVRQAPGKGLEWVAQIKAKSNNYATYYAESVKGRFTISRDDSKNSLYLQMNSLKTEDTAVYYCRYVHYGAYYGVDAWGQGTTVTVSS
VL: DIVMTQSPLSLPVTPGEPASISCRESQSLVHSNRNTYLHWYQQKPGQAPRLLIYKVSNRFSGVPDRFSGSGSGTDFTLKISRVEAEDVGVYYCGQGTQVPYTFGQGTKLEIK
notes: one-arm format as m2
ratio of amounts bound (vs GLS3000): 0.21

B2: GLS3000 S25I (antibody, name in Kabat numbering, V domains shown)
VH: QVQLVESGGGVVQPGRSLRLSCAASGFTFSNAWMHWVRQAPGKGLEWVAQIKAKSNNYATYYAESVKGRFTISRDDSKNSLYLQMNSLKTEDTAVYYCRYVHYGAYYGVDAWGQGTTVTVSS
VL: DIVMTQSPLSLPVTPGEPASISCRISQSLVHSNRNTYLHWYQQKPGQAPRLLIYKVSNRFSGVPDRFSGSGSGTDFTLKISRVEAEDVGVYYCGQGTQVPYTFGQGTKLEIK
notes: one-arm format as m2
ratio of amounts bound (vs GLS3000): 0.53

B3: GLS3000 S25L (antibody, name in Kabat numbering, V domains shown)
VH: QVQLVESGGGVVQPGRSLRLSCAASGFTFSNAWMHWVRQAPGKGLEWVAQIKAKSNNYATYYAESVKGRFTISRDDSKNSLYLQMNSLKTEDTAVYYCRYVHYGAYYGVDAWGQGTTVTVSS
VL: DIVMTQSPLSLPVTPGEPASISCRLSQSLVHSNRNTYLHWYQQKPGQAPRLLIYKVSNRFSGVPDRFSGSGSGTDFTLKISRVEAEDVGVYYCGQGTQVPYTFGQGTKLEIK
notes: one-arm format as m2
ratio of amounts bound (vs GLS3000): 0.24

B4: GLS3000 S25M (antibody, name in Kabat numbering, V domains shown)
VH: QVQLVESGGGVVQPGRSLRLSCAASGFTFSNAWMHWVRQAPGKGLEWVAQIKAKSNNYATYYAESVKGRFTISRDDSKNSLYLQMNSLKTEDTAVYYCRYVHYGAYYGVDAWGQGTTVTVSS
VL: DIVMTQSPLSLPVTPGEPASISCRMSQSLVHSNRNTYLHWYQQKPGQAPRLLIYKVSNRFSGVPDRFSGSGSGTDFTLKISRVEAEDVGVYYCGQGTQVPYTFGQGTKLEIK
notes: one-arm format as m2
ratio of amounts bound (vs GLS3000): 0.31

B5: GLS3000 S25P (antibody, name in Kabat numbering, V domains shown)
VH: QVQLVESGGGVVQPGRSLRLSCAASGFTFSNAWMHWVRQAPGKGLEWVAQIKAKSNNYATYYAESVKGRFTISRDDSKNSLYLQMNSLKTEDTAVYYCRYVHYGAYYGVDAWGQGTTVTVSS
VL: DIVMTQSPLSLPVTPGEPASISCRPSQSLVHSNRNTYLHWYQQKPGQAPRLLIYKVSNRFSGVPDRFSGSGSGTDFTLKISRVEAEDVGVYYCGQGTQVPYTFGQGTKLEIK
notes: one-arm format as m2
ratio of amounts bound (vs GLS3000): 1.01

B6: GLS3000 S25T (antibody, name in Kabat numbering, V domains shown)
VH: QVQLVESGGGVVQPGRSLRLSCAASGFTFSNAWMHWVRQAPGKGLEWVAQIKAKSNNYATYYAESVKGRFTISRDDSKNSLYLQMNSLKTEDTAVYYCRYVHYGAYYGVDAWGQGTTVTVSS
VL: DIVMTQSPLSLPVTPGEPASISCRTSQSLVHSNRNTYLHWYQQKPGQAPRLLIYKVSNRFSGVPDRFSGSGSGTDFTLKISRVEAEDVGVYYCGQGTQVPYTFGQGTKLEIK
notes: one-arm format as m2
ratio of amounts bound (vs GLS3000): 0.83

B7: GLS3000 S25V (antibody, name in Kabat numbering, V domains shown)
VH: QVQLVESGGGVVQPGRSLRLSCAASGFTFSNAWMHWVRQAPGKGLEWVAQIKAKSNNYATYYAESVKGRFTISRDDSKNSLYLQMNSLKTEDTAVYYCRYVHYGAYYGVDAWGQGTTVTVSS
VL: DIVMTQSPLSLPVTPGEPASISCRVSQSLVHSNRNTYLHWYQQKPGQAPRLLIYKVSNRFSGVPDRFSGSGSGTDFTLKISRVEAEDVGVYYCGQGTQVPYTFGQGTKLEIK
notes: one-arm format as m2
ratio of amounts bound (vs GLS3000): 0.73

B8: GLS3000 S26D (antibody, name in Kabat numbering, V domains shown)
VH: QVQLVESGGGVVQPGRSLRLSCAASGFTFSNAWMHWVRQAPGKGLEWVAQIKAKSNNYATYYAESVKGRFTISRDDSKNSLYLQMNSLKTEDTAVYYCRYVHYGAYYGVDAWGQGTTVTVSS
VL: DIVMTQSPLSLPVTPGEPASISCRSDQSLVHSNRNTYLHWYQQKPGQAPRLLIYKVSNRFSGVPDRFSGSGSGTDFTLKISRVEAEDVGVYYCGQGTQVPYTFGQGTKLEIK
notes: one-arm format as m2
ratio of amounts bound (vs GLS3000): 0.86

B9: GLS3000 S26E (antibody, name in Kabat numbering, V domains shown)
VH: QVQLVESGGGVVQPGRSLRLSCAASGFTFSNAWMHWVRQAPGKGLEWVAQIKAKSNNYATYYAESVKGRFTISRDDSKNSLYLQMNSLKTEDTAVYYCRYVHYGAYYGVDAWGQGTTVTVSS
VL: DIVMTQSPLSLPVTPGEPASISCRSEQSLVHSNRNTYLHWYQQKPGQAPRLLIYKVSNRFSGVPDRFSGSGSGTDFTLKISRVEAEDVGVYYCGQGTQVPYTFGQGTKLEIK
notes: one-arm format as m2
ratio of amounts bound (vs GLS3000): 0.74

B10: GLS3000 S26P (antibody, name in Kabat numbering, V domains shown)
VH: QVQLVESGGGVVQPGRSLRLSCAASGFTFSNAWMHWVRQAPGKGLEWVAQIKAKSNNYATYYAESVKGRFTISRDDSKNSLYLQMNSLKTEDTAVYYCRYVHYGAYYGVDAWGQGTTVTVSS
VL: DIVMTQSPLSLPVTPGEPASISCRSPQSLVHSNRNTYLHWYQQKPGQAPRLLIYKVSNRFSGVPDRFSGSGSGTDFTLKISRVEAEDVGVYYCGQGTQVPYTFGQGTKLEIK
notes: one-arm format as m2
ratio of amounts bound (vs GLS3000): 0.78

B11: GLS3000 S27aD (antibody, name in Kabat numbering, V domains shown)
VH: QVQLVESGGGVVQPGRSLRLSCAASGFTFSNAWMHWVRQAPGKGLEWVAQIKAKSNNYATYYAESVKGRFTISRDDSKNSLYLQMNSLKTEDTAVYYCRYVHYGAYYGVDAWGQGTTVTVSS
VL: DIVMTQSPLSLPVTPGEPASISCRSSQDLVHSNRNTYLHWYQQKPGQAPRLLIYKVSNRFSGVPDRFSGSGSGTDFTLKISRVEAEDVGVYYCGQGTQVPYTFGQGTKLEIK
notes: one-arm format as m2
ratio of amounts bound (vs GLS3000): 0.79

B12: GLS3000 S27aE (antibody, name in Kabat numbering, V domains shown)
VH: QVQLVESGGGVVQPGRSLRLSCAASGFTFSNAWMHWVRQAPGKGLEWVAQIKAKSNNYATYYAESVKGRFTISRDDSKNSLYLQMNSLKTEDTAVYYCRYVHYGAYYGVDAWGQGTTVTVSS
VL: DIVMTQSPLSLPVTPGEPASISCRSSQELVHSNRNTYLHWYQQKPGQAPRLLIYKVSNRFSGVPDRFSGSGSGTDFTLKISRVEAEDVGVYYCGQGTQVPYTFGQGTKLEIK
notes: one-arm format as m2
ratio of amounts bound (vs GLS3000): 0.81

B13: GLS3000 S27aG (antibody, name in Kabat numbering, V domains shown)
VH: QVQLVESGGGVVQPGRSLRLSCAASGFTFSNAWMHWVRQAPGKGLEWVAQIKAKSNNYATYYAESVKGRFTISRDDSKNSLYLQMNSLKTEDTAVYYCRYVHYGAYYGVDAWGQGTTVTVSS
VL: DIVMTQSPLSLPVTPGEPASISCRSSQGLVHSNRNTYLHWYQQKPGQAPRLLIYKVSNRFSGVPDRFSGSGSGTDFTLKISRVEAEDVGVYYCGQGTQVPYTFGQGTKLEIK
notes: one-arm format as m2
ratio of amounts bound (vs GLS3000): 1.03

B14: GLS3000 S27aI (antibody, name in Kabat numbering, V domains shown)
VH: QVQLVESGGGVVQPGRSLRLSCAASGFTFSNAWMHWVRQAPGKGLEWVAQIKAKSNNYATYYAESVKGRFTISRDDSKNSLYLQMNSLKTEDTAVYYCRYVHYGAYYGVDAWGQGTTVTVSS
VL: DIVMTQSPLSLPVTPGEPASISCRSSQILVHSNRNTYLHWYQQKPGQAPRLLIYKVSNRFSGVPDRFSGSGSGTDFTLKISRVEAEDVGVYYCGQGTQVPYTFGQGTKLEIK
notes: one-arm format as m2
ratio of amounts bound (vs GLS3000): 1

B15: GLS3000 S27aN (antibody, name in Kabat numbering, V domains shown)
VH: QVQLVESGGGVVQPGRSLRLSCAASGFTFSNAWMHWVRQAPGKGLEWVAQIKAKSNNYATYYAESVKGRFTISRDDSKNSLYLQMNSLKTEDTAVYYCRYVHYGAYYGVDAWGQGTTVTVSS
VL: DIVMTQSPLSLPVTPGEPASISCRSSQNLVHSNRNTYLHWYQQKPGQAPRLLIYKVSNRFSGVPDRFSGSGSGTDFTLKISRVEAEDVGVYYCGQGTQVPYTFGQGTKLEIK
notes: one-arm format as m2
ratio of amounts bound (vs GLS3000): 1.1

B16: GLS3000 S27aP (antibody, name in Kabat numbering, V domains shown)
VH: QVQLVESGGGVVQPGRSLRLSCAASGFTFSNAWMHWVRQAPGKGLEWVAQIKAKSNNYATYYAESVKGRFTISRDDSKNSLYLQMNSLKTEDTAVYYCRYVHYGAYYGVDAWGQGTTVTVSS
VL: DIVMTQSPLSLPVTPGEPASISCRSSQPLVHSNRNTYLHWYQQKPGQAPRLLIYKVSNRFSGVPDRFSGSGSGTDFTLKISRVEAEDVGVYYCGQGTQVPYTFGQGTKLEIK
notes: one-arm format as m2
ratio of amounts bound (vs GLS3000): 0.99

B17: GLS3000 S27aY (antibody, name in Kabat numbering, V domains shown)
VH: QVQLVESGGGVVQPGRSLRLSCAASGFTFSNAWMHWVRQAPGKGLEWVAQIKAKSNNYATYYAESVKGRFTISRDDSKNSLYLQMNSLKTEDTAVYYCRYVHYGAYYGVDAWGQGTTVTVSS
VL: DIVMTQSPLSLPVTPGEPASISCRSSQYLVHSNRNTYLHWYQQKPGQAPRLLIYKVSNRFSGVPDRFSGSGSGTDFTLKISRVEAEDVGVYYCGQGTQVPYTFGQGTKLEIK
notes: one-arm format as m2
ratio of amounts bound (vs GLS3000): 1.1

B18: GLS3000 S27eD (antibody, name in Kabat numbering, V domains shown)
VH: QVQLVESGGGVVQPGRSLRLSCAASGFTFSNAWMHWVRQAPGKGLEWVAQIKAKSNNYATYYAESVKGRFTISRDDSKNSLYLQMNSLKTEDTAVYYCRYVHYGAYYGVDAWGQGTTVTVSS
VL: DIVMTQSPLSLPVTPGEPASISCRSSQSLVHDNRNTYLHWYQQKPGQAPRLLIYKVSNRFSGVPDRFSGSGSGTDFTLKISRVEAEDVGVYYCGQGTQVPYTFGQGTKLEIK
notes: one-arm format as m2
ratio of amounts bound (vs GLS3000): 0.69

B19: GLS3000 S27eE (antibody, name in Kabat numbering, V domains shown)
VH: QVQLVESGGGVVQPGRSLRLSCAASGFTFSNAWMHWVRQAPGKGLEWVAQIKAKSNNYATYYAESVKGRFTISRDDSKNSLYLQMNSLKTEDTAVYYCRYVHYGAYYGVDAWGQGTTVTVSS
VL: DIVMTQSPLSLPVTPGEPASISCRSSQSLVHENRNTYLHWYQQKPGQAPRLLIYKVSNRFSGVPDRFSGSGSGTDFTLKISRVEAEDVGVYYCGQGTQVPYTFGQGTKLEIK
notes: one-arm format as m2
ratio of amounts bound (vs GLS3000): 0.76

B20: GLS3000 S27eF (antibody, name in Kabat numbering, V domains shown)
VH: QVQLVESGGGVVQPGRSLRLSCAASGFTFSNAWMHWVRQAPGKGLEWVAQIKAKSNNYATYYAESVKGRFTISRDDSKNSLYLQMNSLKTEDTAVYYCRYVHYGAYYGVDAWGQGTTVTVSS
VL: DIVMTQSPLSLPVTPGEPASISCRSSQSLVHFNRNTYLHWYQQKPGQAPRLLIYKVSNRFSGVPDRFSGSGSGTDFTLKISRVEAEDVGVYYCGQGTQVPYTFGQGTKLEIK
notes: one-arm format as m2
ratio of amounts bound (vs GLS3000): 1.32

B21: GLS3000 S27eG (antibody, name in Kabat numbering, V domains shown)
VH: QVQLVESGGGVVQPGRSLRLSCAASGFTFSNAWMHWVRQAPGKGLEWVAQIKAKSNNYATYYAESVKGRFTISRDDSKNSLYLQMNSLKTEDTAVYYCRYVHYGAYYGVDAWGQGTTVTVSS
VL: DIVMTQSPLSLPVTPGEPASISCRSSQSLVHGNRNTYLHWYQQKPGQAPRLLIYKVSNRFSGVPDRFSGSGSGTDFTLKISRVEAEDVGVYYCGQGTQVPYTFGQGTKLEIK
notes: one-arm format as m2
ratio of amounts bound (vs GLS3000): 1.04

Reference: patent US20220040297A1 (Chugai, published 2022)
